B1: TTC32 (parent)
chain: YSAYIRRCACAASSDESPGSKCSP

Variants of: B1
Test: protein stability index of a GFP-peptide fusion (GPS, HEK-293T) (PSI 1-6); higher = more stable
Settings: c terminus: a fixed tail appended
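Also: lentivirally expressed fusions sorted by FACS into six bins by GFP to DsRed ratio, PSI derived from sequencing read proportions per bin multiplied by bin number.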

| Variant | protein stability index |
| --- | --- |
| YSAYIRRCACAASSDEMPGSKCSP [S17M] | 2.2 |
| YSAYIRRCACAASSDENPGSKCSP [S17N] | 2.22 |
| YSAYIRRCACAASSDEPPGSKCSP [S17P] | 2.44 |
| YSAYIRRCACAASSDEQPGSKCSP [S17Q] | 1.96 |
| YSAYIRRCACAASSDERPGSKCSP [S17R] | 2.28 |
| YSAYIRRCACAASSDETPGSKCSP [S17T] | 2.37 |
| YSAYIRRCACAASSDEVPGSKCSP [S17V] | 2.02 |
| YSAYIRRCACAASSDEWPGSKCSP [S17W] | 1.78 |
| YSAYIRRCACAASSDEYPGSKCSP [S17Y] | 1.68 |
| YSAYIRRCACAASSDESAGSKCSP [P18A] | 1.83 |
| YSAYIRRCACAASSDESCGSKCSP [P18C] | 2.28 |
| YSAYIRRCACAASSDESDGSKCSP [P18D] | 2.45 |
| YSAYIRRCACAASSDESEGSKCSP [P18E] | 2.36 |
| YSAYIRRCACAASSDESFGSKCSP [P18F] | 2.68 |
| YSAYIRRCACAASSDESGGSKCSP [P18G] | 2.43 |
| YSAYIRRCACAASSDESHGSKCSP [P18H] | 2.21 |
| YSAYIRRCACAASSDESIGSKCSP [P18I] | 1.95 |
| YSAYIRRCACAASSDESKGSKCSP [P18K] | 2.82 |
| YSAYIRRCACAASSDESLGSKCSP [P18L] | 2.22 |
| YSAYIRRCACAASSDESMGSKCSP [P18M] | 1.68 |
| YSAYIRRCACAASSDESNGSKCSP [P18N] | 2.33 |
| YSAYIRRCACAASSDESQGSKCSP [P18Q] | 1.96 |
| YSAYIRRCACAASSDESRGSKCSP [P18R] | 2.06 |
| YSAYIRRCACAASSDESSGSKCSP [P18S] | 2.37 |

| Variant | protein stability index |
| --- | --- |
| YSAYIRRCACAASSDESTGSKCSP [P18T] | 2.42 |
| YSAYIRRCACAASSDESVGSKCSP [P18V] | 2.07 |
| YSAYIRRCACAASSDESWGSKCSP [P18W] | 2.63 |
| YSAYIRRCACAASSDESYGSKCSP [P18Y] | 1.6 |
| YSAYIRRCACAASSDESPASKCSP [G19A] | 2.02 |
| YSAYIRRCACAASSDESPCSKCSP [G19C] | 4.24 |
| YSAYIRRCACAASSDESPDSKCSP [G19D] | 2.83 |
| YSAYIRRCACAASSDESPESKCSP [G19E] | 2.31 |
| YSAYIRRCACAASSDESPFSKCSP [G19F] | 2.32 |
| YSAYIRRCACAASSDESPHSKCSP [G19H] | 2.24 |
| YSAYIRRCACAASSDESPISKCSP [G19I] | 1.89 |
| YSAYIRRCACAASSDESPKSKCSP [G19K] | 2.29 |
| YSAYIRRCACAASSDESPLSKCSP [G19L] | 1.31 |
| YSAYIRRCACAASSDESPMSKCSP [G19M] | 1.74 |
| YSAYIRRCACAASSDESPNSKCSP [G19N] | 2.24 |
| YSAYIRRCACAASSDESPPSKCSP [G19P] | 2.31 |
| YSAYIRRCACAASSDESPQSKCSP [G19Q] | 2 |
| YSAYIRRCACAASSDESPRSKCSP [G19R] | 2.04 |
| YSAYIRRCACAASSDESPSSKCSP [G19S] | 1.51 |
| YSAYIRRCACAASSDESPTSKCSP [G19T] | 1.91 |
| YSAYIRRCACAASSDESPVSKCSP [G19V] | 1.03 |
| YSAYIRRCACAASSDESPWSKCSP [G19W] | 4.05 |
| YSAYIRRCACAASSDESPYSKCSP [G19Y] | 2.35 |
| YSAYIRRCACAASSDESPGAKCSP [S20A] | 2.13 |

| Variant | protein stability index |
| --- | --- |
| YSAYIRRCACAASSDESPGCKCSP [S20C] | 3.96 |
| YSAYIRRCACAASSDESPGDKCSP [S20D] | 2.7 |
| YSAYIRRCACAASSDESPGEKCSP [S20E] | 2.15 |
| YSAYIRRCACAASSDESPGFKCSP [S20F] | 1.93 |
| YSAYIRRCACAASSDESPGGKCSP [S20G] | 1.97 |
| YSAYIRRCACAASSDESPGHKCSP [S20H] | 2.8 |
| YSAYIRRCACAASSDESPGIKCSP [S20I] | 1.85 |
| YSAYIRRCACAASSDESPGKKCSP [S20K] | 2.23 |
| YSAYIRRCACAASSDESPGLKCSP [S20L] | 2.15 |
| YSAYIRRCACAASSDESPGMKCSP [S20M] | 2.12 |
| YSAYIRRCACAASSDESPGNKCSP [S20N] | 2.11 |
| YSAYIRRCACAASSDESPGPKCSP [S20P] | 1.68 |
| YSAYIRRCACAASSDESPGQKCSP [S20Q] | 2.21 |
| YSAYIRRCACAASSDESPGRKCSP [S20R] | 1.65 |
| YSAYIRRCACAASSDESPGTKCSP [S20T] | 2.14 |
| YSAYIRRCACAASSDESPGVKCSP [S20V] | 1.79 |
| YSAYIRRCACAASSDESPGWKCSP [S20W] | 1.85 |
| YSAYIRRCACAASSDESPGYKCSP [S20Y] | 1.61 |
| YSAYIRRCACAASSDESPGSACSP [K21A] | 2.23 |
| YSAYIRRCACAASSDESPGSCCSP [K21C] | 2.37 |
| YSAYIRRCACAASSDESPGSDCSP [K21D] | 1.92 |
| YSAYIRRCACAASSDESPGSECSP [K21E] | 2.3 |
| YSAYIRRCACAASSDESPGSFCSP [K21F] | 2.22 |
| YSAYIRRCACAASSDESPGSGCSP [K21G] | 2.02 |

| Variant | protein stability index |
| --- | --- |
| YSAYIRRCACAASSDESPGSHCSP [K21H] | 1.97 |
| YSAYIRRCACAASSDESPGSICSP [K21I] | 1.86 |
| YSAYIRRCACAASSDESPGSLCSP [K21L] | 1.95 |
| YSAYIRRCACAASSDESPGSMCSP [K21M] | 3.54 |
| YSAYIRRCACAASSDESPGSNCSP [K21N] | 2.11 |
| YSAYIRRCACAASSDESPGSPCSP [K21P] | 2.93 |
| YSAYIRRCACAASSDESPGSQCSP [K21Q] | 1.98 |
| YSAYIRRCACAASSDESPGSRCSP [K21R] | 1.56 |
| YSAYIRRCACAASSDESPGSSCSP [K21S] | 1.86 |
| YSAYIRRCACAASSDESPGSTCSP [K21T] | 1.69 |
| YSAYIRRCACAASSDESPGSVCSP [K21V] | 1.62 |
| YSAYIRRCACAASSDESPGSWCSP [K21W] | 2.23 |
| YSAYIRRCACAASSDESPGSYCSP [K21Y] | 2.8 |
| YSAYIRRCACAASSDESPGSKASP [C22A] | 2.72 |
| YSAYIRRCACAASSDESPGSKDSP [C22D] | 2.22 |
| YSAYIRRCACAASSDESPGSKESP [C22E] | 2.96 |
| YSAYIRRCACAASSDESPGSKFSP [C22F] | 1.69 |
| YSAYIRRCACAASSDESPGSKGSP [C22G] | 2.35 |
| YSAYIRRCACAASSDESPGSKHSP [C22H] | 2.14 |
| YSAYIRRCACAASSDESPGSKISP [C22I] | 1.85 |
| YSAYIRRCACAASSDESPGSKKSP [C22K] | 2.35 |
| YSAYIRRCACAASSDESPGSKLSP [C22L] | 1.78 |

— the supplement of paper PMC10567573
